# Measurements taken from doi:10.1101/373860 (bioRxiv, 2018).
# Biological target: the molecule itself
# Assay: cryo-EM structure
protein,measurement,value
"Arabidopsis thaliana two-pore channel 1 with D240N, D454N, E528Q (AtTPC1DDE), deletion of residues 2-11 (natural protein, UniProt Q94KI8 1-733, looked up) MGGGGTDRVRRSEAITHGTPFQKAAALVDLAEDGIGLPVEILDQSSFGESARYYFIFTRLDLIWSLNYFALLFLNFFEQPLWCEKNPKPSCKDRDYYYLGELPYLTNAESIIYEVITLAILLVHTFFPISYEGSRIFWTSRLNLVKVACVVILFVDVLVDFLYLSPLAFDFLPFRIAPYVRVIIFILSIRELRDTLVLLSGMLGTYLNILALWMLFLLFASWIAFVMFENTQQGLTVFTSYGATLYQMFILFTTSNNPDVWIPAYKSSRWSSVFFVLYVLIGVYFVTNLILAVVYDSFKEQLAKQVSGMDQMKRRMLEKAFGLIDSDKNGEIDKNQCIKLFEQLTNYRTLPKISKEEFGLIFDELDDTRDFKINKDEFADLCQAIALRFQKEEVPSLFEHFPQIYHSALSQQLRAFVRSPNFGYAISFILIINFIAVVVETTLNIEESSAQKPWQVAEFVFGWIYVLEMALKIYTYGFENYWREGANRFDFLVTWVIVIGETATFITPDENTFFSNGQWIRYLLLARMLRLIRLLMNVQRYRAFIATFITLIPSLMPYLGTIFCVLCIYCSIGVQVFGGLVNAGNKKLFETELAEDDYLLFNFNDYPNGMVTLFNLLVMGNWQVWMESYKDLTGTWWSITYFVSFYVITILLLLNLVVAFVLEAFFTELDLEEEEKCQGQDSQEKRNRRRSAGSKSRSQRVDTLLHHMLGDELSKPECSTSDT",stoichiometry N,2
